41 sequences from the nanobody polyreactivity screen of Harvey et al. (2022) can be followed below.

This data set in a line: yeast display, Sf9 membrane polyspecificity reagent, FACS + sequencing; frameworks hold sequencing errors. In a few lines: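 Galactose induction of a Saccharomyces cerevisiae BJ5465 synthetic nanobody display library ran 36–48 hours. The cells were then stained for 1 hour at 4 °C with 10% biotinylated, detergent-solubilized Sf9 membrane reagent, pulled down on streptavidin microbeads and FACS-sorted into low and high (top ~1%) gates on expression and reagent-binding fluorescence. Labels for polyreactivity follow the gate of origin.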
Turning to “QVQLVESGGGLVQAGGSLRLSCAASGFIFGPYAMGWYRQAPGKERELVASISWSGGRTYYADSVKGRFTISRDNAKNTVYLQMNSLKPEDTAVYYCAADLPVIRGYRSNRFGYWGQGTQVTVSS”, the “polyreactivity (PSR sort gate)” value was “high polyreactivity”.

Regarding “QVQLVESGGGLVQAGGSLRLSCAASGNILASNGMGLYRQAPGKERELVAAITYSGGSTYYADSVKGRFTISRDNAKNTVYLQMNSLKPEDTAVYDCAARYYYGRRYDYWGQGTQVTVSS”, the “polyreactivity (PSR sort gate)” value is “low polyreactivity”.

Consider “QVQLVESGGGLVQAGGSLRLICAASGRIFYSYSMGWSRPAPGKERELVATITTSGKTYYADSVNGRFTISRDNAKNTVYLQMNSLIPDDTAVYYCNAGWDLVYGYYPRRKIFDYWGQGTQVTVSS”, for which the “polyreactivity (PSR sort gate)” value is “high polyreactivity”.

Take “QVQLVESGGGLVQAGGSLRLSCAASGRTFYKYAMGWYRQAPGKERELVAAISSRGGRTYYADSVKGRFTISRDNATNTVYLQMNSLKPEDTAVYYCAAKGRPDGKYDYWGQGTQVTVSS”: the “polyreactivity (PSR sort gate)” value is “high polyreactivity”.

Regarding “QVQLVESGGGLVQAGGSLRLSCAASGSTFGTYAMGWYRQEPGKERELVAAINRDGGRTYYADSVKGRFTISRDNAKNTVYLQMNSLKPEDTAVYYCAAEGLDEGDYWGQGTQVTVSS”, the “polyreactivity (PSR sort gate)” value was “low polyreactivity”.

As to “QVQLVESGGGLVQAGGSLRLSCAASGSILSGYAMVWYRQAPGTERELVAAITSGGDTNYADSVKGRFTISRDNAKNTVYLQMNSLKPEETAVYYCAADPSYLGLFGYDYWGQGTQVTVSS”, the “polyreactivity (PSR sort gate)” value was “low polyreactivity”.

Consider “QVQLVESGGGLDQAGGSLRLSCAASGRISGYYDMVWYRQAPGKERELVATITSDGGTNYADSVKGRFTISRDNAKNCVYLQINSLKPEDTAVYYCAAYGWYTKWHFAYGYWGQGTQVTVSS”, for which the “polyreactivity (PSR sort gate)” value is “low polyreactivity”.

In the case of “QVQLVESGGGIVQAGGSLRLSCAASGRIFYFNAMGWYSQAPGKERELVAAISGSGGDTYYADSVKGRFTISRDNAKNTVYLQMNSLKPEDTAVYFCAKEYIFRLWGQGTQVTVSS”, the “polyreactivity (PSR sort gate)” value is reported as “low polyreactivity”.

For the sequence “QVQLVESGGGLVQAGGSLRLSCAASGIIFRWNAMGSYRQAPGKERELVAAITRSGGSTYYADSVKGRFTISRDNAKNTVYLQMNSLKPEDTAVYYCAAEYYAPRYKFDYWGQGTQVTVSS”, the “polyreactivity (PSR sort gate)” value was “high polyreactivity”.

Regarding “QVQLVESGGGLVQAGGSLRLSCAASGIIFNYYAMGWYRQAPGKERELVAAIRISDTTYYADSVKGRFTISRDNAKNTVYLQMNSLKPEDTAVYYCNTLYYYYYGEVYVRDYDYWGQGTQVTVSS”, the “polyreactivity (PSR sort gate)” value is “low polyreactivity”.

Take “QVQLVESRGGLVQAGGSLRISCPDSGFTFTKNAMGWYRQAPGKERELVAAISRGRGRTYYADSVKGRFTISRDNAKNTVYFQMNSLIPEDTAVYYCNVDKVGPGYDYWGQGTQVTVSS”: the “polyreactivity (PSR sort gate)” value is on record as “high polyreactivity”.

In the case of “QVQLVESGGGLVQAGGSLRLSCAASGRTFYHYAMGWYRQAPGKERELVATITSSGGNTYYADSVKGRFTISRDNSKNTVYLQMNSLKPEDTEVYYCAADWFVYQYSFGSSEYYYWGQGTQVTVSS”, the “polyreactivity (PSR sort gate)” value was “low polyreactivity”.

Consider “QVQLVESGGGLVQAGGSLRLSCAASGRIFDRYVMGWYRQAPVKERALVAAISDGGSTYYADSVKGRFTISRDNAKNTVYLQMISLKPEDTAVYYCNAAFYPNENYYLIYDYWGQGTQVTVSS”, for which the “polyreactivity (PSR sort gate)” value is given as “low polyreactivity”.

In the case of “QVQLVESGGGLVQAGGSLRLSCAASGYTFPVYAKGWYRQASRKERELVATSTSGGSTNYADSVKGRFTISRDNAKNTVYFQMNSLKPEDTAVYYCAADRALSISLYPIASFYYWGQGTQVTVSS”, the “polyreactivity (PSR sort gate)” value is on record as “low polyreactivity”.

Take “QVQLVESGGGLVQAGGSLRLSCAASGRTFWYYAMGWYRQAPGKERELVAAISRNGGSTYYEDSVKGRFTISRDNAKNTVYLQMNSLKPEDTAVYYCAADGWYTRKYDYWGQGTQVTVSS”: the “polyreactivity (PSR sort gate)” value is “high polyreactivity”.

Take “QVQLVESGGGLVQAGGSLRLSCAASGTIFVNNAMGWYRQAPGKERELVAAIRRSGGNTYYADSVKGRFTISRDNAKNTVYLQMNSLKPEDTAVYYCNVVRRADSIRAKSRDYWGQGTQVTVSS”: the “polyreactivity (PSR sort gate)” value was “high polyreactivity”.

As for “QVQLVESGGGLVQAVGSLRLSCAASGIIFRNYAMGWYRQAPGKEREWVAAISRSGGSTYYADSVKGRFTISRDNAKNTCYLQMNSLKPEDTAVYYCNAAYWAYNGFSYLMDYWGQGTQVTVSS”, the “polyreactivity (PSR sort gate)” value is “low polyreactivity”.

Regarding “QVQLVESGGGLVQAGGSLRLSCAASGSTFEDYSMGWYRQAPGKERELVAAISHIGGSTYYADSVKGRFTISRDNAKNTVYLQMNSLKPDDTAVYYCAKGGFSSKFDYWGQGTQVTVSS”, the “polyreactivity (PSR sort gate)” value is reported as “low polyreactivity”.

Turning to “QVQLVESGGGLVQAGGSLRLSCAASGFIFRYYAMGWYRQAPGKERELVARITPRGGRTYYADSVKGRFTISRDNAKNTVYLQMNSLKPEDTAVYYCAAVYPVLDEFGYWGQGTQVTVSS”, the “polyreactivity (PSR sort gate)” value is “high polyreactivity”.

Consider “QVQLVESGGGLVQAGGSLRLSCDASGSTRIYAMGWYTQAPGKERELVAAISWTGGRTYYADSVKGRFTISRDNAKYTVYLQMNSLKPEDTAVYYCAAKGSGRDYWGQGTLVTVSS”, for which the “polyreactivity (PSR sort gate)” value is “high polyreactivity”.

Take “QVQLVESGGGLVQAGGSLRLSCAASGIIFRFYSMGWYRQAPGKERELLAVITSRSDSTYYADSVKGRFTISRDNAKNTVYLQMNSLKPEDTAVYYCNARYPWYYRYSTYDYWGQGTQVTVSS”: the “polyreactivity (PSR sort gate)” value is “high polyreactivity”.

As to “QVQLVESGGGLVQAGGSLRLSCAASGFTFYRYAMGWYRQAPGKERELVAAINWSGVSTYYADSVKGRFTISRDNAKNTVYLQMNSLKPEDTAVYYCAADTYAGYNGNYWGQGTQVTVSS”, the “polyreactivity (PSR sort gate)” value is “high polyreactivity”.

For the sequence “QVQLVESGGGLVQAGGSLRLSCAASGSIFTVNAMGWYRQAPGKEREFVAAITGGGTSTYYADSVKGRFTISRDNAKNTVYLQMNSLKPEDTAVYYCAATTYHYSPTYGYWGQGTQVTVSS”, the “polyreactivity (PSR sort gate)” value is given as “low polyreactivity”.

Take “QVQLVESGGGLVQAGGSLRLSCAASGITFYYYAMGWYRQAPGKERELVAAISRSGITYYADSVKGRFTISRDNAKNTVYLQMNSLKPEDTAVYYCAAGRRFDQSMYYWGQGTQVTVSS”: the “polyreactivity (PSR sort gate)” value was “high polyreactivity”.

For “QVQLVESGGGLVQAGGSLRLSCAASGFISSHYAMGWYRPAPGKEWEVVATISSGGSTYADSVKGRFTISRDNAKNTVYLQMNSLKPEDTAVYYCAKRYYKSLNRDEFDSWGQGTQVTVSS”, the “polyreactivity (PSR sort gate)” value is on record as “high polyreactivity”.

Take “QVQLVESGGGLVQAGGSLRLSCAASGFTSSRNAMGWYLQAPGKEREWVATISSGGDTYYADSVKGRFTISRDNAKNTVYLQMNSLKPVDTAVYYCNKDPLYDWGYDYWGHGTQVTVSS”: the “polyreactivity (PSR sort gate)” value was “low polyreactivity”.

For “QVQLVESGGGLVQAGGSLRLSCAASGITFITYVMGWYRQAPGKERELVAAISLRGGRTSYADSVKGRFTISRDNAKNTVYLQMNSLKPEDTAVYYCAARAYYTRYDFWGQGTQVTVSS”, the “polyreactivity (PSR sort gate)” value is given as “high polyreactivity”.

With “QVQLVESGGGLVQAGGSLRLSCAASGRILRQYAMGWYRQAPGKERELVAAITSSGGSTYYADSVKGRFTNSRDNAKNTVYLQMNSLKPEDTAVYYCAARYYPSGYRKKMYYWGQGTQVTVSS”, the “polyreactivity (PSR sort gate)” value was “high polyreactivity”.

Regarding “QDQLVESVGGLVQAGGSLRLSCAASGLTFEVYAMGWSRQAPGKDRELVAAISSGGRSTYYADSVKGRFTISRDNAKNTVYLQMNSRKPEDSAVYYCNAVAKLYYWRYDYWGQGTQVTVSS”, the “polyreactivity (PSR sort gate)” value is “low polyreactivity”.

For the sequence “QVQLVESGGGIVQAGGSLRLSCAASGRTIYFNAMGWYRQAPGKERELVATISRSTGSTYYADSVKGRFTISRDNAKNTVYLQMNSLKPEYTAVYYCNATPWGYARMDYWGQGTQVTVSS”, the “polyreactivity (PSR sort gate)” value is on record as “low polyreactivity”.

For the sequence “QVQLVESGGGLVQAGGSLRLSCAASGSIFTRYAMGWYRQAPGKERELVAAISYRGDRTYYADSVKGRFTISRDNAKNTVYLQMNSLKPEDTAVYYCAATVQYSPIYDYWGQGTQVTVSS”, the “polyreactivity (PSR sort gate)” value was “high polyreactivity”.

Consider “QVQLVESGGGLVQAGGSLRLSCAASGFIFANAIGWYRQAPGKEMELVAAITWSGDSTYYADSVKGRFTISRDNAKNTVYLQMNSLKPEDTAVYYCAAVVTNAYRYDYWGQGTQVTVSS”, for which the “polyreactivity (PSR sort gate)” value is recorded as “low polyreactivity”.

On to “QVQLVESGGGLVQAGGSLRLSCAASGTIFGYYAMGWYRQAPGKERELVAAITSDGDTYYADSVKGRFTISRDNAKNTVYLQMNSLIPEDTAVYYCNATYGGPYYIQYDYWGQGTQVTVSS”, for which the “polyreactivity (PSR sort gate)” value is “low polyreactivity”.

Regarding “QVQLVESGGGLVQAGGSLRLSCAASGRIFVEYAMGWYRQAPGKERELVAAINSGGSTNYADSVKGRFTISRDNAKNTVYLQMNSLKPEDTAVYYCNKDTLVYGYVQDYEYWGQGTQVTVSS”, the “polyreactivity (PSR sort gate)” value is on record as “low polyreactivity”.

For “QVQLVESGGGLVQAGGSLRLSCAASGSIFGSYAMGWYRQAPGKERELVAAISWRGGRTYYADSVKGRFTISRDNAKNTVYLQMNSLKPEDTAVYYCAAERHARSSYEYWGQGTQVTVSS”, the “polyreactivity (PSR sort gate)” value was “low polyreactivity”.

With “QVQLVESGGGLVQAGGSLRLSCAASGRTFRSYAMGWYRQAPGKERELVAAISRGGRTNYADSVKGRFTISRDNAKNTVYLQMNSLKPEDTAVYYCAARLPYLGGYDYWGQGTQVTVSS”, the “polyreactivity (PSR sort gate)” value is given as “high polyreactivity”.

For the sequence “QVQLEESGGGLFQAGGSLRLSCAASGTTQNGYTMGWYRQAPGKEREMVATINRGSSTHYADSVKGRFTISRDNAKNTVYLQMNSLKPEDTAVYYCNKRYPLGTEYYYLGQGTQVTVSS”, the “polyreactivity (PSR sort gate)” value is recorded as “high polyreactivity”.

Consider “QVQLVESGGGLVQAGGSLRLRSAASGFTFHRYAMGWSRQAPGKERELVAGITRRSGSTFYADSVKGRFTISRDNAKNTVYLQMNSLKPEDTAVYYCAATVPGLHWIYDYWGQGTQVTVSS”, for which the “polyreactivity (PSR sort gate)” value is “high polyreactivity”.

As for “QVQLVESGGGLVQAGGSLRLSCAASGLTFVFYAMGWYRQAPGNERELVAAISWSTGRTYYADSVKGRFTISRDNAKNTVYLQMNSLKPEDTAVYYCAASYLGRKYDYWGQGTQVTVSS”, the “polyreactivity (PSR sort gate)” value is reported as “high polyreactivity”.

Regarding “QVQLVESGGGLVQAGGSLRLSCAASGTIFPTYAMGWYRQAPGKERELVAAISSIVGGTYYAHSVKGRFTISRDNAKNTVYLQMNSLKPEVTAVYYCAAPEDKYQHCIYGAYGVDYWGQGTQVTVSS”, the “polyreactivity (PSR sort gate)” value is recorded as “low polyreactivity”.

On to “QVQLVESGGGLVQAGGSLRLSCAASGFTFVPYAMGWYIQAPGKERELVAAISSRGDSTYYADSVKGRFTISRDNAKNTVYLQMNSLKPEDTAVYYCNARTTPHMDYWGQGTQVTVSS”, for which the “polyreactivity (PSR sort gate)” value is on record as “low polyreactivity”.
